In paper PMC3237451, “Missense Mutation in the Second RNA Binding Domain Reveals a Role for Prkra (PACT/RAX) during Skull Development”:

Molecular target: T1, His-RAX WT (PACT) (Mus musculus (cDNA from L929 cells), UniProt Q9WTX2 1-313)
T1 sequence: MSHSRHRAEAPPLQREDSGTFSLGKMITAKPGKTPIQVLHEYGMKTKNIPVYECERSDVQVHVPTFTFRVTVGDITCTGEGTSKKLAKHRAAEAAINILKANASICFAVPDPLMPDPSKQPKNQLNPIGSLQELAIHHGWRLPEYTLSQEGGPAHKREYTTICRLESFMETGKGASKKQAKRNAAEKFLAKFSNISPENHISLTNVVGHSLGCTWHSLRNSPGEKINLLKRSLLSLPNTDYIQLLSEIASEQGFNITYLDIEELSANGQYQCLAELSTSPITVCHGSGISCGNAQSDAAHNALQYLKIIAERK
Assay: EMSA; 1 uM His-RAX; 25 fmol probe; competed by poly(I:C); 20 mM Tris pH 7.5, 50 mM KCl, 2 mM MgCl2, 2 mM MnCl2, 5% glycerol; EMSA 15 min at room temperature, 5% acrylamide gel in 0.25x TBE run cold
Conditions: protein: recombinant; blunt

B1: 30-bp dsRNA probe (dsRNA)
RNA 1: GGGAACAAAAGCUGGGUACCGGGCCCCCCC
RNA 2: GGGGGGGCCCGGUACCCAGCUUUUGUUCCC
B1: binds.
